Measurements taken from the supplement of paper PMC7877785.
± gives the uncertainty stated by the source.

Assay: self-splicing fitness, log relative to wild type (ln ratio); higher = more splicing; Tetrahymena group I intron in knt gene, E. coli kanamycin selection, DiMSum; sequences stand for … in CUCUCU…GGAGGGAAAAGUUAUCAGGCAUGCACCUGGUAGCUAGUCUUUAAACCAAUAGAUUGCAUCGGUUUAAAAGGCAAGACCGUCAAAUUGCGGGAAAGGGGUCAACAGCCGUUCAGUACCAAGUCUCAGGGGAAACUUUGAGAUGGCCUUGCAAAGGGUAUGGUAAUAAGCUGACGGACAUGGUCCUAACCACGCAGCCAAGUCCUAAGUCAACAGAUCUUCUGUUGAUAUGGAUGCAGUUCACAGACUAAAUGUCGGUCGGGGAAGAUGUAUUCUUCUCAUAAGAUAUAGUCGGACCUCUCCUUAAUGGGAGCUAGCGGAUGAAGUGAUGCAACACUGGAGCCGCUGGGAACUAAUUUGUAUGCGAAAGUAUAUUGAUUAGUUUUGGAGUACUCGUGGUCG
Summary of the method: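 Library with all eight P1ex-region intron nucleotides randomised, intron inside the knt kanamycin-resistance gene on pET-22b(+), in E. coli BL21(DE3). Cells grew overnight at 37°C or 30°C on LB agar with or without 25 μg/mL kanamycin (plus 100 μg/mL carbenicillin, 50 μM IPTG, 0.2% rhamnose), in six replicate transformations. Pooled colonies were amplicon-sequenced on Illumina HiSeq 2500. DiMSum fitness is the error-weighted combination of wild-type-normalised replicate fold changes, kanamycin versus none.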

GCGUAGCAAUAUUACGUAUG
self-splicing fitness (ln) (30 °C): -2.96 ± 0.3 | self-splicing fitness (ln) (37 °C): -2 ± 0.24

GCGUAGCAAUAUUACGUAUU
self-splicing fitness (ln) (30 °C): -2.67 ± 0.12 | self-splicing fitness (ln) (37 °C): -2.11 ± 0.19

GCGUAGCAAUAUUACGUCAC
self-splicing fitness (ln) (37 °C): -0.245 ± 0.37

GCGUAGCAAUAUUACGUCCG
self-splicing fitness (ln) (30 °C): -2.52 ± 0.26 | self-splicing fitness (ln) (37 °C): -1.48 ± 0.21

GCGUAGCAAUAUUACGUCUG
self-splicing fitness (ln) (30 °C): -3.48 ± 0.23 | self-splicing fitness (ln) (37 °C): -3.38 ± 0.24

GCGUAGCAAUAUUACGUGAG
self-splicing fitness (ln) (30 °C): -2.75 ± 0.17 | self-splicing fitness (ln) (37 °C): -2.67 ± 0.17

GCGUAGCAAUAUUACGUGAU
self-splicing fitness (ln) (30 °C): -2.79 ± 0.24 | self-splicing fitness (ln) (37 °C): -1.56 ± 0.19

GCGUAGCAAUAUUACGUUGU
self-splicing fitness (ln) (30 °C): -2.73 ± 0.17 | self-splicing fitness (ln) (37 °C): -1.89 ± 0.18

GCUAAGCAAUAUUACGAGAG
self-splicing fitness (ln) (30 °C): -2.38 ± 0.12 | self-splicing fitness (ln) (37 °C): -1.27 ± 0.14

GCUAAGCAAUAUUACGAUAA
self-splicing fitness (ln) (30 °C): -1.88 ± 0.17 | self-splicing fitness (ln) (37 °C): -1.1 ± 0.17

GCUAAGCAAUAUUACGCCCG
self-splicing fitness (ln) (30 °C): -0.889 ± 0.11 | self-splicing fitness (ln) (37 °C): -0.34 ± 0.17

GCUAAGCAAUAUUACGCGCG
self-splicing fitness (ln) (30 °C): -0.427 ± 0.084 | self-splicing fitness (ln) (37 °C): -0.075 ± 0.13

GCUAAGCAAUAUUACGCUAA
self-splicing fitness (ln) (30 °C): -3.29 ± 0.34 | self-splicing fitness (ln) (37 °C): -2.3 ± 0.21

GCUAAGCAAUAUUACGGCAU
self-splicing fitness (ln) (30 °C): -2.13 ± 0.1 | self-splicing fitness (ln) (37 °C): -0.863 ± 0.12

GCUAAGCAAUAUUACGGCUG
self-splicing fitness (ln) (30 °C): -2.83 ± 0.15 | self-splicing fitness (ln) (37 °C): -2.03 ± 0.18

GCUAAGCAAUAUUACGGGAG
self-splicing fitness (ln) (30 °C): -3.12 ± 0.34 | self-splicing fitness (ln) (37 °C): -1.28 ± 0.17

GCUAAGCAAUAUUACGGGCC
self-splicing fitness (ln) (37 °C): -2.28 ± 0.39

GCUAAGCAAUAUUACGGGGC
self-splicing fitness (ln) (30 °C): -4.76 ± 0.38 | self-splicing fitness (ln) (37 °C): -2.87 ± 0.28

GCUAAGCAAUAUUACGGGGG
self-splicing fitness (ln) (30 °C): -3.45 ± 0.28 | self-splicing fitness (ln) (37 °C): -1.89 ± 0.22

GCUAAGCAAUAUUACGGGUG
self-splicing fitness (ln) (30 °C): -1.24 ± 0.069 | self-splicing fitness (ln) (37 °C): 0.116 ± 0.079

GCUAAGCAAUAUUACGGUCC
self-splicing fitness (ln) (30 °C): -1.4 ± 0.22 | self-splicing fitness (ln) (37 °C): -0.541 ± 0.3

GCUAAGCAAUAUUACGGUUA
self-splicing fitness (ln) (30 °C): -1.33 ± 0.1 | self-splicing fitness (ln) (37 °C): -1.49 ± 0.094

GCUAAGCAAUAUUACGGUUU
self-splicing fitness (ln) (30 °C): -0.872 ± 0.069 | self-splicing fitness (ln) (37 °C): -0.522 ± 0.095

GCUAAGCAAUAUUACGUCAG
self-splicing fitness (ln) (30 °C): -3.84 ± 0.28 | self-splicing fitness (ln) (37 °C): -2.21 ± 0.22

GCUAAGCAAUAUUACGUCGU
self-splicing fitness (ln) (30 °C): -1.39 ± 0.072 | self-splicing fitness (ln) (37 °C): -1.3 ± 0.095

GCUAAGCAAUAUUACGUCUC
self-splicing fitness (ln) (30 °C): -0.757 ± 0.066 | self-splicing fitness (ln) (37 °C): -0.164 ± 0.072

GCUAAGCAAUAUUACGUCUU
self-splicing fitness (ln) (30 °C): -1.18 ± 0.13 | self-splicing fitness (ln) (37 °C): 0.136 ± 0.13

GCUAAGCAAUAUUACGUGCA
self-splicing fitness (ln) (30 °C): -0.433 ± 0.094 | self-splicing fitness (ln) (37 °C): -0.212 ± 0.1

GCUAAGCAAUAUUACGUGUA
self-splicing fitness (ln) (30 °C): -1.29 ± 0.087 | self-splicing fitness (ln) (37 °C): -0.0918 ± 0.088

GCUAAGCAAUAUUACGUUGG
self-splicing fitness (ln) (30 °C): -3.67 ± 0.15 | self-splicing fitness (ln) (37 °C): -1.79 ± 0.12

GCUCAGCAAUAUUACGAAAA
self-splicing fitness (ln) (30 °C): -0.758 ± 0.13 | self-splicing fitness (ln) (37 °C): -1.02 ± 0.18

GCUCAGCAAUAUUACGAAAC
self-splicing fitness (ln) (30 °C): -0.549 ± 0.14 | self-splicing fitness (ln) (37 °C): -0.851 ± 0.17

GCUCAGCAAUAUUACGAAGC
self-splicing fitness (ln) (30 °C): -2.75 ± 0.12 | self-splicing fitness (ln) (37 °C): -2.33 ± 0.15

GCUCAGCAAUAUUACGAAUU
self-splicing fitness (ln) (30 °C): -1.04 ± 0.064 | self-splicing fitness (ln) (37 °C): 0.155 ± 0.087

GCUCAGCAAUAUUACGACGC
self-splicing fitness (ln) (30 °C): -0.319 ± 0.12 | self-splicing fitness (ln) (37 °C): -0.102 ± 0.19

GCUCAGCAAUAUUACGAGCG
self-splicing fitness (ln) (30 °C): -2.81 ± 0.16 | self-splicing fitness (ln) (37 °C): -0.923 ± 0.11

GCUCAGCAAUAUUACGCAGC
self-splicing fitness (ln) (30 °C): -2.98 ± 0.35 | self-splicing fitness (ln) (37 °C): -2.67 ± 0.44

GCUCAGCAAUAUUACGCAGG
self-splicing fitness (ln) (30 °C): -1.52 ± 0.084 | self-splicing fitness (ln) (37 °C): -1.29 ± 0.098

GCUCAGCAAUAUUACGCAGU
self-splicing fitness (ln) (30 °C): -2.41 ± 0.15 | self-splicing fitness (ln) (37 °C): -1.13 ± 0.14

GCUCAGCAAUAUUACGCCGA
self-splicing fitness (ln) (30 °C): -2.43 ± 0.26 | self-splicing fitness (ln) (37 °C): -1.39 ± 0.34

GCUCAGCAAUAUUACGCUGG
self-splicing fitness (ln) (30 °C): -2.98 ± 0.16 | self-splicing fitness (ln) (37 °C): -2.27 ± 0.22

GCUCAGCAAUAUUACGCUUG
self-splicing fitness (ln) (30 °C): -2.04 ± 0.11 | self-splicing fitness (ln) (37 °C): 0.227 ± 0.1

GCUCAGCAAUAUUACGCUUU
self-splicing fitness (ln) (30 °C): -0.857 ± 0.077 | self-splicing fitness (ln) (37 °C): -0.887 ± 0.083

GCUCAGCAAUAUUACGGAAA
self-splicing fitness (ln) (30 °C): -1.62 ± 0.15 | self-splicing fitness (ln) (37 °C): -0.337 ± 0.12

GCUCAGCAAUAUUACGGACA
self-splicing fitness (ln) (30 °C): -1.25 ± 0.14 | self-splicing fitness (ln) (37 °C): -0.983 ± 0.13

GCUCAGCAAUAUUACGGAGA
self-splicing fitness (ln) (30 °C): -0.638 ± 0.095 | self-splicing fitness (ln) (37 °C): 0.284 ± 0.14

GCUCAGCAAUAUUACGGUCU
self-splicing fitness (ln) (30 °C): -0.866 ± 0.087 | self-splicing fitness (ln) (37 °C): -0.0674 ± 0.12

GCUCAGCAAUAUUACGGUGG
self-splicing fitness (ln) (30 °C): -2.89 ± 0.17 | self-splicing fitness (ln) (37 °C): -1.41 ± 0.11
